From patent US20110091994A1, “Methods for Screening Compounds for Treating and/or Preventing an Hepatitis C Virus Infection” (priority 2008, published 2011)
Where two headings read alike, the source gives them in different places.

Legend:
HCV proteins = molecular target: T1, HCV proteins (Hepatitis C virus genotype 1b, UniProt Q9WMX2); assay: Validation by Y2H pairwise matrices; format: binding;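 also: yeast two-hybrid pairwise tests of interactions first found in Y2H screens of HCV bait proteins against human cDNA libraries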
T1 construct: expressed in transfected cells

[1] = molecular target: T2, HCV ORFs (Gal4-DB fusions) (Hepatitis C virus genotype 1b, UniProt Q9WMX2); format: binding, HCV genotype 1b, isolate con1; details: human protein as prey
T2 construct: expressed in transfected cells; host or cells: Saccharomyces cerevisiae MAV203 (IMAP1) / AH109 (IMAP2)

[2] = tested on: HCV ORFs (Gal4-DB fusions); format: binding, HCV genotype 1b, isolate con1; details: human protein listed by gene symbol; the value names the HCV protein it interacts with
[3] = validation of interaction with HCV protein NS3
[4] = validation of interaction with HCV protein CORE
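For IMAP Y2H IMAP1 (number of IST) in this document: yeast two-hybrid screens using HCV genotype 1b proteins fused to Gal4-DB as baits against prey cDNA libraries from human spleen and foetal brain, IMAP1 via transformation and IMAP2 via mating.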
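For Interaction with viral protein in this document: yeast two-hybrid screens using HCV genotype 1b proteins fused to Gal4-DB as baits against prey cDNA libraries from human spleen and foetal brain, IMAP1 via transformation and IMAP2 via mating.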

Molecule | Y2H matrices (HCV proteins; [3]) | IMAP Y2H IMAP1 (number of IST) ([1]; HCV protein NS3 as bait) | Interaction with viral protein [2] | Y2H matrices (HCV proteins; [4]) | IMAP Y2H IMAP1 (number of IST) ([1]; HCV protein CORE as bait)
USHBP1 (protein, UniProt Q8N6Y0 1-703, looked up) Harmonin-binding protein …: MSARATRPRSRRGRHAPPGELDPVAESSEEVEAASGSSKPSFAPPPVSSGLEQLGPMEEVSGQGLGSRTDKKMDGGSGRELASAPEVPHKPAVEAHQAPEAALQYKETVPPGNGAPDVFQTLQHTLSSLEAAAAAWRHQPPSHSGPMEFEGTSEGGAGSLGKQEGAGSCQREAARLAERNAWLRLALSSREDELVRTQASLEAIRAEKETLQKEVQELQDSLLRLEPCPHLSHNQAGGSGSGSSSSEADREPWETQDSFSLAHPLLRRLRSHSSTQILGSLPNQPLSPEMHIMEAQMEQLRGSIEKLKCFNRLLSAVLQGYKGRCEGLSMQLGQREAEATALHLALQYSEHCEEAYRVLLALREADSGAGDEAPMSDLQAAEKEAWRLLAQEEAAMDAGAQQNPQPSPEGSSVDKPTPQEVAFQLRSYVQRLQERRSLMKILSEPGPTLAPMPTVPRAEAMVQAILGTQAGPALPRLEKTQIQQDLVAAREALADLMLRLQLVRREKRGLELREAALRALGPAHVLLLEQLRWERAELQAGGANSSGGHSSGGGSSGDEEEWYQGLPAVPGGTSGIDGGQVGRAWDPEKLAQELAASLTRTLDLQEQLQSLRRELEQVAQKGRARRSQSAELNRDLCKAHSALVLAFRGAHRKQEEQRRKLEQQMALMEAQQAEEVAVLEATARALGKPRPPLPPPQLGDTFL | + | 1 | NS3 |  | 
SLC31A2 (protein, UniProt O15432 1-143, looked up) Protein SLC31A2: MAMHFIFSDTAVLLFDFWSVHSPAGMALSVLVLLLLAVLYEGIKVGKAKLLNQVLVNLPTSISQQTIAETDGDSAGSDSFPVGRTHHRWYLCHFGQSLIHVIQVVIGYFIMLAVMSYNTWIFLGVVLGSAVGYYLAYPLLSTA |  |  | CORE | + | 1
PLSCR1 (protein, UniProt O15162 1-318, looked up) Phospholipid scramblase 1: MDKQNSQMNASHPETNLPVGYPPQYPPTAFQGPPGYSGYPGPQVSYPPPPAGHSGPGPAGFPVPNQPVYNQPVYNQPVGAAGVPWMPAPQPPLNCPPGLEYLSQIDQILIHQQIELLEVLTGFETNNKYEIKNSFGQRVYFAAEDTDCCTRNCCGPSRPFTLRIIDNMGQEVITLERPLRCSSCCCPCCLQEIEIQAPPGVPIGYVIQTWHPCLPKFTIQNEKREDVLKISGPCVVCSCCGDVDFEIKSLDEQCVVGKISKHWTGILREAFTDADNFGIQFPLDLDVKMKAVMIGACFLIDFMFFESTGSQEQKSGVW |  |  | CORE | + | 1
THAP1 (protein, UniProt Q9NVV9 1-213, looked up) THAP domain-containing …: MVQSCSAYGCKNRYDKDKPVSFHKFPLTRPSLCKEWEAAVRRKNFKPTKYSSICSEHFTPDCFKRECNNKLLKENAVPTIFLCTEPHDKKEDLLEPQEQLPPPPLPPPVSQVDAAIGLLMPPLQTPVNLSVFCDHNYTVEDTMHQRKRIHQLEQQVEKLRKKLKTAQQRCRRQERQLEKLKEVVHFQKEKDDVSERGYVILPNDYFEIVEVPA | + | 1 | NS3 |  | 
TRIM23 (protein, UniProt P36406 1-574, looked up) E3 ubiquitin-protein ligase …: MATLVVNKLGAGVDSGRQGSRGTAVVKVLECGVCEDVFSLQGDKVPRLLLCGHTVCHDCLTRLPLHGRAIRCPFDRQVTDLGDSGVWGLKKNFALLELLERLQNGPIGQYGAAEESIGISGESIIRCDEDEAHLASVYCTVCATHLCSECSQVTHSTKTLAKHRRVPLADKPHEKTMCSQHQVHAIEFVCLEEGCQTSPLMCCVCKEYGKHQGHKHSVLEPEANQIRASILDMAHCIRTFTEEISDYSRKLVGIVQHIEGGEQIVEDGIGMAHTEHVPGTAENARSCIRAYFYDLHETLCRQEEMALSVVDAHVREKLIWLRQQQEDMTILLSEVSAACLHCEKTLQQDDCRVVLAKQEITRLLETLQKQQQQFTEVADHIQLDASIPVTFTKDNRVHIGPKMEIRVVTLGLDGAGKTTILFKLKQDEFMQPIPTIGFNVETVEYKNLKFTIWDVGGKHKLRPLWKHYYLNTQAVVFVVDSSHRDRISEAHSELAKLLTEKELRDALLLIFANKQDVAGALSVEEITELLSLHKLCCGRSWYIQGCDARSGMGLYEGLDWLSRQLVAAGVLDVA | + | 5 | NS3 |  | 
TBC1D2B (protein, UniProt Q9UPU7 1-963, looked up) TBC1 domain family member 2B: MPGAGARAEEGGGGGEGAAQGAAAEPGAGPAREPARLCGYLQKLSGKGPLRGYRSRWFVFDARRCYLYYFKSPQDALPLGHLDIADACFSYQGPDEAAEPGTEPPAHFQVHSAGAVTVLKAPNRQLMTYWLQELQQKRWEYCNSLDMVKWDSRTSPTPGDFPKGLVARDNTDLIYPHPNASAEKARNVLAVETVPGELVGEQAANQPAPGHPNSINFYSLKQWGNELKNSMSSFRPGRGHNDSRRTVFYTNEEWELLDPTPKDLEESIVQEEKKKLTPEGNKGVTGSGFPFDFGRNPYKGKRPLKDIIGSYKNRHSSGDPSSEGTSGSGSVSIRKPASEMQLQVQSQQEELEQLKKDLSSQKELVRLLQQTVRSSQYDKYFTSSRLCEGVPKDTLELLHQKDDQILGLTSQLERFSLEKESLQQEVRTLKSKVGELNEQLGMLMETIQAKDEVIIKLSEGEGNGPPPTVAPSSPSVVPVARDQLELDRLKDNLQGYKTQNKFLNKEILELSALRRNAERRERDLMAKYSSLEAKLCQIESKYLILLQEMKTPVCSEDQGPTREVIAQLLEDALQVESQEQPEQAFVKPHLVSEYDIYGFRTVPEDDEEEKLVAKVRALDLKTLYLTENQEVSTGVKWENYFASTVNREMMCSPELKNLIRAGIPHEHRSKVWKWCVDRHTRKFKDNTEPGHFQTLLQKALEKQNPASKQIELDLLRTLPNNKHYSCPTSEGIQKLRNVLLAFSWRNPDIGYCQGLNRLVAVALLYLEQEDAFWCLVTIVEVFMPRDYYTKTLLGSQVDQRVFRDLMSEKLPRLHGHFEQYKVDYTLITFNWFLVVFVDSVVSDILFKIWDSFLYEGPKVIFRFALALFKYKEEEILKLQDSMSIFKYLRYFTRTILDARKLISISFGDLNPFPLRQIRNRRAYHLEKVRLELTELEAIREDFLRERDTSPDKGELVSDEEEDT | + | 1 | NS3 |  | 
XAB2 (protein, UniProt Q9HCS7 1-855, looked up) Pre-mRNA-splicing factor SYF1: MVVMARLSRPERPDLVFEEEDLPYEEEIMRNQFSVKCWLRYIEFKQGAPKPRLNQLYERALKLLPCSYKLWYRYLKARRAQVKHRCVTDPAYEDVNNCHERAFVFMHKMPRLWLDYCQFLMDQGRVTHTRRTFDRALRALPITQHSRIWPLYLRFLRSHPLPETAVRGYRRFLKLSPESAEEYIEYLKSSDRLDEAAQRLATVVNDERFVSKAGKSNYQLWHELCDLISQNPDKVQSLNVDAIIRGGLTRFTDQLGKLWCSLADYYIRSGHFEKARDVYEEAIRTVMTVRDFTQVFDSYAQFEESMIAAKMETASELGREEEDDVDLELRLARFEQLISRRPLLLNSVLLRQNPHHVHEWHKRVALHQGRPREIINTYTEAVQTVDPFKATGKPHTLWVAFAKFYEDNGQLDDARVILEKATKVNFKQVDDLASVWCQCGELELRHENYDEALRLLRKATALPARRAEYFDGSEPVQNRVYKSLKVWSMLADLEESLGTFQSTKAVYDRILDLRIATPQIVINYAMFLEEHKYFEESFKAYERGISLFKWPNVSDIWSTYLTKFIARYGGRKLERARDLFEQALDGCPPKYAKTLYLLYAQLEEEWGLARHAMAVYERATRAVEPAQQYDMFNIYIKRAAEIYGVTHTRGIYQKAIEVLSDEHAREMCLRFADMECKLGEIDRARAIYSFCSQICDPRTTGAFWQTWKDFEVRHGNEDTIKEMLRIRRSVQATYNTQVNFMASQMLKVSGSATGTVSDLAPGQSGMDDMKLLEQRAEQLAAEAERDQPLRAQSKILFVRSDASREELAELAQQVNPEEIQLGEDEDEDEMDLEPNEVRLEQQSVPAAVFGSLKED | + | 2 | NS3 |  | 
SSX2IP (protein, UniProt Q9Y2D8 1-614, looked up) Afadin- and …: MGDWMTVTDPGLSSESKTISQYTSETKMSPSSLYSQQVLCSSIPLSKNVHSFFSAFCTEDNIEQSISYLDQELTTFGFPSLYEESKGKETKRELNIVAVLNCMNELLVLQRKNLLAQENVETQNLKLGSDMDHLQSCYSKLKEQLETSRREMIGLQERDRQLQCKNRNLHQLLKNEKDEVQKLQNIIASRATQYNHDMKRKEREYNKLKERLHQLVMNKKDKKIAMDILNYVGRADGKRGSWRTGKTEARNEDEMYKILLNDYEYRQKQILMENAELKKVLQQMKKEMISLLSPQKKKPRERVDDSTGTVISDVEEDAGELSRESMWDLSCETVREQLTNSIRKQWRILKSHVEKLDNQVSKVHLEGFNDEDVISRQDHEQETEKLELEIQQCKEMIKTQQQLLQQQLATAYDDDTTSLLRDCYLLEEKERLKEEWSLFKEQKKNFERERRSFTEAAIRLGLERKAFEEERASWLKQQFLNMTTFDHQNSENVKLFSAFSGSSDWDNLIVHSRQPQKKPHSVSNGSPVCMSKLTKSLPASPSTSDFCQTRSCISEHSSINVLNITAEEIKPNQVGGECTNQKWSVASRPGSQEGCYSGCSLSYTNSHVEKDDLP | + | 3 | NS3 |  | 
